The RNAGym collection of RNA variant scans (doi:10.1093/molbev/msab373)

B1: Azoarcus group I ribozyme (parent)
chain: GUGCCUUGCGCCGGGAAACCACGCAAGGGAUGGUGUCAAAUUCGGCGAAACCUAAGCGCCCGCCCGGGCGUAUGGCAACGCCGAGCCAAGCUUCGGCGCCUGCGCCGAUGAAGGUGUAGAGACUAGACGGCACCCACCUAAGGCAAACGCUAUGGUGAAGGCAUAGUCCAGGGAGUGGCGAAAGUCACACAAACCGG

Variants of: B1
Assay: reverse-splicing fitness (ratio to wild type); higher = more active; in vitro selection; Mg2+ level not given
Summary of the method: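 An in vitro group I ribozyme library with randomized positions was T7-transcribed and gel-purified. In triplicate, 10 pmol RNA in EPPS pH 7.5 was reacted with 50 pmoles of a 30-nt RNA substrate for 1 h at 37 °C across several added MgCl2 levels (1–48 mM), then stopped with EDTA. Products were reverse transcribed from a substrate-complementary primer, PCR-amplified and sequenced (HiSeq 4000). Fitness is a variant's read proportion after selection over that before, normalised to wild type.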
Work on C82U A111U A120U A145U C150A yielded a reverse-splicing fitness of 0.00625.
C82U A111U A120U A145U C150G gave a reverse-splicing fitness of 0.00727.
In the case of C82U A111U A120U A145U C150U, the reverse-splicing fitness is reported as 0.0175.
C82U A111U A120U C150G C169G gave a reverse-splicing fitness of 0.00584.
Variant C82U A111U A120U C150G C169A has a reverse-splicing fitness of 0.00657.
Variant C82U A111U A120U C150G C169U has a reverse-splicing fitness of 0.00478.
Work on C82U A111U A120U A145G C150U U176C yielded a reverse-splicing fitness of 0.0115.
In the case of C82U A111U A120U A145G C150U U176A, the reverse-splicing fitness is reported as 0.00787.
Variant C82U A111U A120U A145G C150U U176G has a reverse-splicing fitness of 0.00322.
C82U A111U A120U A145G C150A U176C gave a reverse-splicing fitness of 0.00627.
Variant C82U A111U A120U A145G C150A U176G has a reverse-splicing fitness of 0.00271.
With C82U A111U A120U A145G C150A U176A the reverse-splicing fitness was 0.00691.
Work on C82U A111U A120U A145U C150A C169U yielded a reverse-splicing fitness of 0.00279.
With C82U A111U A120U A145U C150A C169G the reverse-splicing fitness was 0.00254.
For C82U A111U A120U A145U C150A C169A, the reverse-splicing fitness was 0.00215.
Variant C82U A111U A120U C150A C169A U176C has a reverse-splicing fitness of 0.00306.
With C82U A111U A120U C150A C169A U176G the reverse-splicing fitness was 0.00224.
With C82U A111U A120U C150A C169A U176A the reverse-splicing fitness was 0.00372.
C82U A111U A120U C150U C169A gave a reverse-splicing fitness of 0.00397.
Work on C82U A111U A120U C150U C169G yielded a reverse-splicing fitness of 0.00465.
C82U A111U A120U C150U C169U showed a reverse-splicing fitness of 0.00426.
In the case of C82U A111U A120U A145U C150G C169A U176A, the reverse-splicing fitness is reported as 0.0028.
Variant C82U A111U A120U A145U C150G C169A U176C has a reverse-splicing fitness of 0.00272.
C82U A111U A120U A145U C150G C169A U176G gave a reverse-splicing fitness of 0.00213.
For C82U A111U A120U A145U C150A U176A, the reverse-splicing fitness was 0.00357.
With C82U A111U A120U A145U C150A U176C the reverse-splicing fitness was 0.00477.
Work on C82U A111U A120U A145U C150A U176G yielded a reverse-splicing fitness of 0.00252.
With C82U A111U A120U A145U U176C the reverse-splicing fitness was 0.0111.
For C82U A111U A120U A145U U176A, the reverse-splicing fitness was 0.00758.
C82U A111U A120U A145U U176G gave a reverse-splicing fitness of 0.00339.
Variant C82U A111U A120U C150U U176A has a reverse-splicing fitness of 0.00668.
In the case of C82U A111U A120U C150U U176G, the reverse-splicing fitness is reported as 0.00363.
For C82U A111U A120U C150U U176C, the reverse-splicing fitness was 0.0088.
Variant C82U A111U A120U A145G C150U C169U has a reverse-splicing fitness of 0.00435.
In the case of C82U A111U A120U A145G C150U C169A, the reverse-splicing fitness is reported as 0.00562.
C82U A111U A120U A145G C150U C169G showed a reverse-splicing fitness of 0.0051.
C82U A111U A120U A145G C169G showed a reverse-splicing fitness of 0.00363.
C82U A111U A120U A145G C169A showed a reverse-splicing fitness of 0.0029.
Work on C82U A111U A120U A145G C169U yielded a reverse-splicing fitness of 0.00389.
C82U A111U A120U A145U C150U C169A U176C gave a reverse-splicing fitness of 0.00275.
C82U A111U A120U A145U C150U C169A U176G gave a reverse-splicing fitness of 0.00202.
C82U A111U A120U A145U C150U C169A U176A gave a reverse-splicing fitness of 0.00292.
C82U A111U A120U A145G C169A U176G gave a reverse-splicing fitness of 0.00171.
C82U A111U A120U A145G C169A U176A showed a reverse-splicing fitness of 0.00289.
Work on C82U A111U A120U A145G C169A U176C yielded a reverse-splicing fitness of 0.00291.
Work on C82U A111U A120U C150U C169G U176A yielded a reverse-splicing fitness of 0.00732.
C82U A111U A120U C150U C169G U176C showed a reverse-splicing fitness of 0.00317.
In the case of C82U A111U A120U C150U C169G U176G, the reverse-splicing fitness is reported as 0.00205.
In the case of C82U A111U A120U A145G C150A C169U U176G, the reverse-splicing fitness is reported as 0.00228.
With C82U A111U A120U A145G C150G C169G the reverse-splicing fitness was 0.00647.
For C82U A111U A120U A145G C150G C169U, the reverse-splicing fitness was 0.00706.
Work on C82U A111U A120U A145G C150G C169A yielded a reverse-splicing fitness of 0.00819.
For C82U A111U A120U A145U C150G C169G, the reverse-splicing fitness was 0.00274.
Work on C82U A111U A120U A145U C150G C169U yielded a reverse-splicing fitness of 0.00272.
C82U A111U A120U A145U C150G C169A gave a reverse-splicing fitness of 0.0034.
C82U A111U A120U A145U C150U C169U U176C showed a reverse-splicing fitness of 0.00392.
For C82U A111U A120U A145U C150U C169U U176A, the reverse-splicing fitness was 0.00293.
With C82U A111U A120U A145U C150U C169U U176G the reverse-splicing fitness was 0.00227.
With C82U A111U A120U A145G C169U U176G the reverse-splicing fitness was 0.00207.
With C82U A111U A120U A145G C169U U176C the reverse-splicing fitness was 0.00323.
In the case of C82U A111U A120U A145G C169U U176A, the reverse-splicing fitness is reported as 0.00304.
In the case of C82U A111U A120U A145U C150A C169A U176A, the reverse-splicing fitness is reported as 0.00233.
Work on C82U A111U A120U A145U C150A C169A U176C yielded a reverse-splicing fitness of 0.00283.
In the case of C82U A111U A120U A145U C150A C169A U176G, the reverse-splicing fitness is reported as 0.00206.
C82U A111U A120U A145U showed a reverse-splicing fitness of 0.0252.
For C82U A111U A120U C150U C169U U176C, the reverse-splicing fitness was 0.0041.
C82U A111U A120U C150U C169U U176A gave a reverse-splicing fitness of 0.00527.
In the case of C82U A111U A120U C150U C169U U176G, the reverse-splicing fitness is reported as 0.00244.
In the case of C82U A111U A120U A145U C169A U176C, the reverse-splicing fitness is reported as 0.00301.
Variant C82U A111U A120U A145U C169A U176A has a reverse-splicing fitness of 0.00233.
C82U A111U A120U A145U C169A U176G showed a reverse-splicing fitness of 0.0017.
In the case of C82U A111U A120U A145G C150U C169U U176A, the reverse-splicing fitness is reported as 0.00396.
With C82U A111U A120U A145G C150U C169U U176C the reverse-splicing fitness was 0.00399.
With C82U A111U A120U A145G C150U C169U U176G the reverse-splicing fitness was 0.00209.
With C82U A111U A120U C150G U176G the reverse-splicing fitness was 0.00237.
C82U A111U A120U C150G U176A showed a reverse-splicing fitness of 0.00352.
Variant C82U A111U A120U C150G U176C has a reverse-splicing fitness of 0.005.
Variant C82U A111U A120U A145G C150U has a reverse-splicing fitness of 0.022.
Work on C82U A111U A120U A145G C150G yielded a reverse-splicing fitness of 0.00817.
C82U A111U A120U C169A U176G showed a reverse-splicing fitness of 0.00193.
In the case of C82U A111U A120U C169A U176A, the reverse-splicing fitness is reported as 0.00285.
C82U A111U A120U C169A U176C gave a reverse-splicing fitness of 0.00317.
Work on C82U A111U A120U A145U C150G C169G U176G yielded a reverse-splicing fitness of 0.00209.
